From PMC4843787 (Biochimica et biophysica acta, 2015) come the findings set out here.

Where a chain is given by its changes, count along the chain named. Numbers in names are those of the source.

This assay addresses T1, MauG, bis-Fe(IV) redox state (UniProt Q51658 21-387).
T1 sequence (looked up): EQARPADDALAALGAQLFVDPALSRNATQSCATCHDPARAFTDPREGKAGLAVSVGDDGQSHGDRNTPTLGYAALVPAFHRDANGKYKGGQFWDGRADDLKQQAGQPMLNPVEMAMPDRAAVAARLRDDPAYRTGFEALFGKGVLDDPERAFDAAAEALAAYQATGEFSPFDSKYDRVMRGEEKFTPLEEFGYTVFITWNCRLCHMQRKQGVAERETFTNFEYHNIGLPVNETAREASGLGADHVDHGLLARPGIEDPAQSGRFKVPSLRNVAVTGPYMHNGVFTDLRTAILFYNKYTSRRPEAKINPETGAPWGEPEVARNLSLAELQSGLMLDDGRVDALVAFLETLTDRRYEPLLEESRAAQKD
Kind of assay: stopped-flow single-turnover kinetics.

B1: amicyanin from Paracoccus denitrificans, wild type, reduced Cu(I) form (natural protein, UniProt P22364 27-131, looked up)
chain: DKATIPSESPFAAAEVADGAIVVDIAKMKYETPELHVKVGDTVTWINREAMPHNVHFVAGVLGEAALKGPMMKKEQAYSLTFTEAGTYDYHCTPHPFMRGKVVVE
Consider B1, for which binding was characterised by a dissociation constant (Kd) of 165 ± 50 µM.

B2: P94A amicyanin, reduced Cu(I) form (natural protein, Paracoccus denitrificans, UniProt P22364 27-131, looked up)
chain: B1 chain with P94A
On to B2, for which the Kd – broadly, the constant that tells how readily two partners part at equilibrium – is 240 ± 82 µM.
